Test [1] has as its target eIF2α-NTD_(S51D) (phosphomimetic N-terminal domain of eIF2α, aa 1–184) (human). The experiment in a line: fluorescence polarisation. On the technique in general: Fluorescence polarisation rises when a labelled molecule tumbles more slowly, as on binding a larger partner.
The target of the next test is T1, eIF2Bβ (human, UniProt P49770 1-351).
T1 sequence: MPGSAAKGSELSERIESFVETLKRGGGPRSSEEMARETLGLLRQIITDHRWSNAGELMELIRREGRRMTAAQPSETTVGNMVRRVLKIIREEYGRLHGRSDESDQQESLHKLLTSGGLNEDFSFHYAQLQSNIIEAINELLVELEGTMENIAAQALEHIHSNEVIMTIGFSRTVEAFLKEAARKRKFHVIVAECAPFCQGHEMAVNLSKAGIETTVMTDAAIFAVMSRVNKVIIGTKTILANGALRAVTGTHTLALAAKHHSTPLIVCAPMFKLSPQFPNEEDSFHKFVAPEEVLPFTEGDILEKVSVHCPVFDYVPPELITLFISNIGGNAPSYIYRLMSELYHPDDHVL
As to the kind of experiment: SEC. (In general: SEC sorts molecules by how far they enter the pores of the column.)

As for “eIF2Breg (eIF2B regulatory subcomplex of eIF2Bα, β and δ), reconstituted from individual subunits (from UniProt Q14232;P49770;Q9UI10)”, the fold higher affinity than for WT eIF2α-NTD in test [1] is less than 2 fold.

B1: eIF2Bα_(I301E/L305D) mutant (designated as eIF2Bα in the paper) (natural protein)
chain: MDDKELIEYFKSQMKEDPDMASAVAAIRTLLEFLKRDKGETIQGLRANLTSAIETLCGVDSSVAVSSGGELFLRFISLASLEYSDYSKCKKIMIERGELFLRRISLSRNKIADLCHTFIKDGATILTHAYSRVVLRVLEAAVAAKKRFSVYVTESQPDLSGKKMAKALCHLNVPVTVVLDAAVGYIMEKADLVIVGAEGVVENGGIINKIGTNQMAVCAKAQNKPFYVVAESFKFVRLFPLNQQDVPDKFKYKADTLKVAQTGQDLKEEHPWVDYTAPSLITLLFTDLGVLTPSAVSDELEKLYD
Consider B1, for which the binding result with eIF2Bβ is recorded as “binds”.

For the origin of these results see PMC5714165 (Nucleic Acids Research, 2017).
